T1: p23 (Homo sapiens, UniProt Q15185 1-160)
T1 sequence: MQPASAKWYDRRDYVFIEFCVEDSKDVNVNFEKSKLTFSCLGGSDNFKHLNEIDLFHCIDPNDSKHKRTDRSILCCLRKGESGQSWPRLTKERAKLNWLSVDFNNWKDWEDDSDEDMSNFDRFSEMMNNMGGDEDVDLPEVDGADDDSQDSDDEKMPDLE

B1: p21 20-mer DNA, Cy5 (dsDNA)
DNA 1: GAACATGTTCGAACATGTTC
DNA 2: GAACATGTTCGAACATGTTC
B2: p21 20-mer DNA, unlabeled (dsDNA)
DNA 1: GAACATGTTCGAACATGTTC
DNA 2: GAACATGTTCGAACATGTTC

Assays:
[1] = target: p53 DBD (Homo sapiens, UniProt P04637 88-312); assay: fluorescence anisotropy
[2] = target: T1, p23; assay: NMR DOSY

p53 DBD, sequence (P04637 88-312): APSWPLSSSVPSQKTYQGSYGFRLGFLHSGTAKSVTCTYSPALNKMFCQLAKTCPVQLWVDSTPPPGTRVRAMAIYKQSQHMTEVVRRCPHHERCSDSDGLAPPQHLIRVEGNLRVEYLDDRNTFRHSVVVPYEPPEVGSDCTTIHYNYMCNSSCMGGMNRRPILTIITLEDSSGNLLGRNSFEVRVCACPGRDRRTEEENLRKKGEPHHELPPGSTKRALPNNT

| Binder | Kd [1] | binding result [2] |
| --- | --- | --- |
| B1 | 45 ± 7 nM |  |
| B2 |  | no binding |

From publication PMC5811392
